In the supplement of paper PMC5998384:

Legend:
[1] = test system: HeLa Kyoto; test: thermal stability score vs G1/S (z-score of summed log2 fold changes over temperatures); higher = more thermally stable than in G1/S
[2] = test system: HeLa Kyoto; test: melting temperature (median over replicates), in situ; higher = more thermally stable
[3] = cell cycle stage: early G1 (4.5 h after nocodazole release)
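Wherever melting temperature (median over replicates), in situ is given: HeLa Kyoto cells synchronized by double thymidine or nocodazole block, proteins quantified by TMT10plex mass spectrometry, three independent biological replicates.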
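Wherever thermal stability score vs G1/S (z-score of summed log2 fold changes over temperatures) is given: synchronized HeLa Kyoto cells, proteins quantified by TMT10plex mass spectrometry, three biological replicates, mitosis taken 0.5 h after nocodazole release, G1/S directly after double thymidine block.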

Sequence of DESI2 (chain, as listed by the source): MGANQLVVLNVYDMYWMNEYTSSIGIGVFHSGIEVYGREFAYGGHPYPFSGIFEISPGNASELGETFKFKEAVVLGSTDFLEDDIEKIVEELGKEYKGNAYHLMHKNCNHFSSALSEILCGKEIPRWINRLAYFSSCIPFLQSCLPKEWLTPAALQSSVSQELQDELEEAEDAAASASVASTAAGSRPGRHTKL

Substance	thermal stability score [1, 3]	thermal stability score ([1]; cell cycle stage: mitosis)	melting temperature ([2]; cell cycle stage: G1/S) [°C]	melting temperature ([2]; cell cycle stage: mitosis) [°C]
MSKMPAKKKSCFQITSVTTAQVATSITEDTESLDDPDESRTEDVSSEIFDVSRATDYGPEEVCERSSSEETLNNVGDAETPGTVSPNLLLDGQLAAAAAAPANGGGVVSARSVSGALASTLAAAATSAPAPGAPGGPQLAGSSAGPVTAAPSQPPTTCSSRFRVIKLDHGSGEPYRRGRWTCMEYYERDSDSSVLTRSGDCIRHSSTFDQTAERDSGLGATGGSVVVVVASMQGAHGPESGTDSSLTAVSQLPPSEKMSQPTPAQPQSFSVGQPQPPPPPVGGAVAQSSAPLPPFPGAATGPQPMMAAAQPSQPQGAGPGGQTLPPTNVTLAQPAMSLPPQPGPAVGAPAAQQPQQFAYPQPQIPPGHLLPVQPSGQSEYLQQHVAGLQPPSPAQPSSTGAAASPATAATLPVGTGQNASSVGAQLMGASSQPSEAMAPRTGPAQGGQVAPCQPTGVPPATVGGVVQPCLGPAGAGQPQSVPPPQMGGSGPLSAVPGGPHAVVPGVPNVPAAVPAPSVPSVSTTSVTMPNVPAPLAQSQQLSSHTPVSRSSSIIQHVGLPLAPGTHSAPTSLPQSDLSQFQTQTQPLVGQVDDTRRKSEPLPQPPLSLIAENKPVVKPPVADSLANPLQLTPMNSLATSVFSIAIPVDGDEDRNPSTAFYQAFHLNTLKESKSLWDSASGGGVVAIDNKIEQAMDLVKSHLMYAVREEVEVLKEQIKELVERNSLLERENALLKSLSSNDQLSQLPTQQANPGSTSQQQAVIAQPPQPTQPPQQPNVSSA [TSC22D2]	0.461	0.468		
MCFSFIMPPAMADILDIWAVDSQIASDGSIPVDFLLPTGIYIQLEVPREATISYIKQMLWKQVHNYPMFNLLMDIDSYMFACVNQTAVYEELEDETRRLCDVRPFLPVLKLVTRSCDPGEKLDSKIGVLIGKGLHEFDSLKDPEVNEFRRKMRKFSEEKILSLVGLSWMDWLKQTYPPEHEPSIPENLEDKLYGGKLIVAVHFENCQDVFSFQVSPNMNPIKVNELAIQKRLTIHGKEDEVSPYDYVLQVSGRVEYVFGDHPLIQFQYIRNCVMNRALPHFILVECCKIKKMYEQEMIAIEAAINRNSSNLPLPLPPKKTRIISHVWENNNPFQIVLVKGNKLNTEETVKVHVRAGLFHGTELLCKTIVSSEVSGKNDHIWNEPLEFDINICDLPRMARLCFAVYAVLDKVKTKKSTKTINPSKYQTIRKAGKVHYPVAWVNTMVFDFKGQLRTGDIILHSWSSFPDELEEMLNPMGTVQTNPYTENATALHVKFPENKKQPYYYPPFDKIIEKAAEIASSDSANVSSRGGKKFLPVLKEILDRDPLSQLCENEMDLIWTLRQDCREIFPQSLPKLLLSIKWNKLEDVAQLQALLQIWPKLPPREALELLDFNYPDQYVREYAVGCLRQMSDEELSQYLLQLVQVLKYEPFLDCALSRFLLERALGNRRIGQFLFWHLRSEVHIPAVSVQFGVILEAYCRGSVGHMKVLSKQVEALNKLKTLNSLIKLNAVKLNRAKGKEAMHTCLKQSAYREALSDLQSPLNPCVILSELYVEKCKYMDSKMKPLWLVYNNKVFGEDSVGVIFKNGDDLRQDMLTLQMLRLMDLLWKEAGLDLRMLPYGCLATGDRSGLIEVVSTSETIADIQLNSSNVAAAAAFNKDALLNWLKEYNSGDDLDRAIEEFTLSCAGYCVASYVLGIGDRHSDNIMVKKTGQLFHIDFGHILGNFKSKFGIKRERVPFILTYDFIHVIQQGKTGNTEKFGRFRQCCEDAYLILRRHGNLFITLFALMLTAGLPELTSVKDIQYLKDSLALGKSEEEALKQFKQKFDEALRESWTTKVNWMAHTVRKDYRS [PIK3CB]	0.304	0.592		
MSLCSPTHSAEMSLFLQGPEEMLPLSSEGSEMGSEKEQSPEPHLPEEGEGGKPWRVDDSEGSWIPPGEKEHGQESLSDELQETHPKKPWQKVTVRARELGDPIAHPRHEADEKPFICAQCGKTFNNTSNLRTHQRIHTGEKPYKCSECGKSFSRSSNRIRHERIHLEEKHYKCPKCQESFRRRSDLTTHQQDHLGKRPYRCDICGKSFSQSATLAVHHRTHLEPAPYICCECGKSFSNSSSFGVHHRTHTGERPYECTECGRTFSDISNFGAHQRTHRGEKPYRCTVCGKHFSRSSNLIRHQKTHLGEQAGKDSS [ZNF691]			54.9	53.1
MAPRALPGSAVLAAAVFVGGAVSSPLVAPDNGSSRTLHSRTETTPSPSNDTGNGHPEYIAYALVPVFFIMGLFGVLICHLLKKKGYRCTTEAEQDIEEEKVEKIELNDSVNENSDTVGQIVHYIMKNEANADVLKAMVADNSLYDPESPVTPSTPGSPPVSPGPLSPGGTPGKHVCGHHLHTVGGVVERDVCHRCRHKRWHFIKPTNKSRESRPRRQGEVTVLSVGRFRVTKVEHKSNQKERRSLMSVSGAETVNGEVPATPVKRERSGTE [RELL1]			54.7	
MASLKCSTVVCVICLEKPKYRCPACRVPYCSVVCFRKHKEQCNPETRPVEKKIRSALPTKTVKPVENKDDDDSIADFLNSDEEEDRVSLQNLKNLGESATLRSLLLNPHLRQLMVNLDQGEDKAKLMRAYMQEPLFVEFADCCLGIVEPSQNEES [ZNHIT3]			50.4	52.7
DESI2			53.8	
MWTLGRRAVAGLLASPSPAQAQTLTRVPRPAELAPLCGRRGLRTDIDATCTPRRASSNQRGLNQIWNVKKQSVYLMNLRKSGTLGHPGSLDETTYERLAEETLDSLAEFFEDLADKPYTFEDYDVSFGSGVLTVKLGGDLGTYVINKQTPNKQIWLSSPSSGPKRYDWTGKNWVYSHDGVSLHELLAAELTKALKTKLDLSSLAYSGKDA [FXN]			53	53.3
MATQAKRPRVAGPVDGGDLDPVACFLSWCRRVGLELSPKVSERAGGRRTRGGARAALTSPPAQVAVSRQGTVAGYGMVARESVQAGELLFVVPRAALLSQHTCSIGGLLERERVALQSQSGWVPLLLALLHELQAPASRWRPYFALWPELGRLEHPMFWPEEERRCLLQGTGVPEAVEKDLANIRSEYQSIVLPFMEAHPDLFSLRVRSLELYHQLVALVMAYSFQEPLEEEEDEKEPNSPVMVPAADILNHLANHNANLEYSANCLRMVATQPIPKGHEIFNTYGQMANWQLIHMYGFVEPYPDNTDDTADIQMVTVREAALQGTKTEAERHLVYERWDFLCKLEMVGEEGAFVIGREEVLTEEELTTTLKVLCMPAEEFRELKDQDGGGDDKREEGSLTITNIPKLKASWRQLLQNSVLLTLQTYATDLKTDQGLLSNKEVYAKLSWREQQALQVRYGQKMILHQLLELTS [SETD6]				50.4
MSLPPEKASELKQLIHQQLSKMDVHGRIREILAETIREELAPDQQHLSTEDLIKALRRRGIIDDVMKELNFVTDSVEQELPSSPKQPICFDRQSTLKKTNIDPTRRYLYLQVLGGKAFLEHLQEPEPLPGQVCSTFTLCLHYRNQRFRSKPVPCACEPDFHDGFLLEVHRESLGDGTRMADSTTMLSISDPIHMVLIKTDIFGETTLVASYFLEWRSVLGSENGVTSLTVELMGVGTESKVSVGILNIKLEMYPPLNQTLSQEVVNTQLALERQKTAEKERLFLVYAKQWWREYLQIRPSHNSRLVKIFAQDENGINRPVCSYVKPLRAGRLLDTPRQAARFVNVLGYERAPVIGGGGKQEQWCTLLAFLCRNKGDCEDHANLLCSLLLGYGLEAFVCVGTKAKGVPHAWVMTCGTDGAITFWESLTGHRYIHKPTNPDEPPVAEQPKPLYPYRTIGCVFNHQMFLGNCQPSDAVETCVFDLNDESKWKPMSEEAIKSVCAPGATTSLPPFPPLCASTIDASVTSNEIEMQLRLLVSEHRKDLGLTTVWEDQLSYLLSPALASYEFERTTSISAGNEEFQDAIRRAVPDGHTFKGFPIHFVYRNARRAFATCLRSPFCEEIICCRGDQVRLAVRVRVFTYPESACAVWIMFACKYRSVL [CEP76]			53.7	
MAEAEESPGDPGTASPRPLFAGLSDISISQDIPVEGEITIPMRSRIREFDSSTLNESVRNTIMRDLKAVGKKFMHVLYPRKSNTLLRDWDLWGPLILCVTLALMLQRDSADSEKDGGPQFAEVFVIVWFGAVTITLNSKLLGGNISFFQSLCVLGYCILPLTVAMLICRLVLLADPGPVNFMVRLFVVIVMFAWSIVASTAFLADSQPPNRRALAVYPVFLFYFVISWMILTFTPQ [YIPF6]			55	54.6
